Measurements: article PMC6208348
Read-outs that look alike come from different tables or passages of the source.

How the values were obtained:
EGFR-pTyr1086 = test: FP
Shc1-pTyr239 = test: FP
Shc1-pTyr317 = test: FP
VCP-pTyr805-tail7 = test: FP
[1] = molecular target: DnaJ-A1-pTyr381 ∆C peptide (human) (UniProt P31689); test: FP
[2] = molecular target: DnaJ-A1-pTyr381 ∆N peptide (human) (UniProt P31689); test: FP
EGFR-pTyr954 = test: FP
mini peptide GGpYGG = test: fluorescence polarisation
MidT-pTyr324 = test: FP; conditions: natural protein

Substance: L. dumoffii LeSH2
- Kd (EGFR-pTyr1086; natural protein): 14.7 µM
- Kd (Shc1-pTyr239; natural protein): 2.46 µM
- Kd (Shc1-pTyr317; natural protein): 9.35 µM
- Kd (VCP-pTyr805-tail7; natural protein): 9.1 µM

Substance: L. anisa LeSH2b (Lani_WP_019234638)
- Kd ([1]; natural protein): 16.5 µM
- Kd ([2]; natural protein): 22.6 µM
- Kd (EGFR-pTyr1086; natural protein): > 50 µM
- Kd (EGFR-pTyr954; natural protein): > 50 µM
- Kd (Shc1-pTyr239; natural protein): 38.1 µM
- Kd (Shc1-pTyr317; natural protein): 40.6 µM
- Kd (VCP-pTyr805-tail7; natural protein): 31.2 µM

Substance: L. dumoffii LeSH2 (natural protein)
- Kd (mini peptide GGpYGG): 14.7 µM

Substance: L. pneumophila LeSH2
- Kd [1]: 1.09 µM
- Kd (EGFR-pTyr1086): 31.4 µM
- Kd (EGFR-pTyr954): 44.6 µM
- Kd (Shc1-pTyr239): 3.66 µM
- Kd (Shc1-pTyr317): 8.77 µM

Substance: L. anisa LeSH2a (Lani_0711)
- Kd (EGFR-pTyr954; natural protein): 7.98 µM
- Kd (Shc1-pTyr239; natural protein): 3.05 µM
- Kd (VCP-pTyr805-tail7; natural protein): 2.53 µM

Substance: L. waltersii LeSH5 tandem SH2
- Kd [1]: 28.7 µM
- Kd [2]: 15 µM
- Kd (EGFR-pTyr1086): 33.5 µM
- Kd (Shc1-pTyr239): 6.17 µM
- Kd (Shc1-pTyr317): 13.8 µM

Substance: L. dumoffii LUSH (natural protein)
- Kd (mini peptide GGpYGG): 0.38 µM

Substance: L. dumoffii LeSH1a
- Kd ([1]; natural protein): > 50 µM
- Kd ([2]; natural protein): > 50 µM
- Kd (MidT-pTyr324): > 50 µM
- Kd (Shc1-pTyr239; natural protein): > 50 µM
- Kd (Shc1-pTyr317; natural protein): > 50 µM
- Kd (VCP-pTyr805-tail7; natural protein): > 50 µM

Substance: L. longbeachae LeSH (natural protein)
- Kd (mini peptide GGpYGG): 3.6 µM

Substance: L. pneumophila DoSH C-SH2
- Kd [2]: 31.9 µM
- Kd (EGFR-pTyr1086): 12.5 µM

Substance: Src SH2 TrM (superbinder)
- Kd (VCP-pTyr805-tail7): 1.2 µM

Substance: L. anisa LeSH1b (Lani_2495)
- Kd ([1]; natural protein): > 50 µM
- Kd ([2]; natural protein): > 50 µM
- Kd (Shc1-pTyr239; natural protein): > 50 µM
- Kd (Shc1-pTyr317; natural protein): > 50 µM
- Kd (VCP-pTyr805-tail7; natural protein): > 50 µM
